Laboratory results published in patent publication US20190032033A1.

Molecular target: β1AR-84 (minimally thermostabilised turkey β1 adrenergic receptor construct) (turkey), P07700
Assay: cell-based or functional assay

Chain of β1AR-84 (minimally thermostabilised turkey β1 adrenergic receptor construct) (turkey), P07700 (P07700 other isoform, or with tags, fused parts or gaps): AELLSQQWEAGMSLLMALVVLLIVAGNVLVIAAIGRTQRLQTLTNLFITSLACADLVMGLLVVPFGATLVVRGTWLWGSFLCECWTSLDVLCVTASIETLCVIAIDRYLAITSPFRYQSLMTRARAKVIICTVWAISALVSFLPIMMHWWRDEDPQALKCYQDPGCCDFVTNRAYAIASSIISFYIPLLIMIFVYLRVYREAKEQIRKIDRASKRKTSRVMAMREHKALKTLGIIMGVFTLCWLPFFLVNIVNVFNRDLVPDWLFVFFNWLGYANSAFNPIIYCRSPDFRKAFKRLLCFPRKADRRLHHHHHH

isoprenaline Ki of DDM-solubilised β1AR-84 (alone […] µM): 0.0047 µM | isoprenaline Ki of membrane-embedded β1AR-84 (alone […] µM): 0.0036 µM | isoprenaline Ki of β1AR-84 with 0.25 mM GTPγS (alone 3.0 µM): 5.2 nM
B1: Mini Gs393, P04896 26-394 (protein)
chain: GIEKQLQKDKQVYRATHRLLLLGADNSGKSTIVKQMRILHGGSGGSGGTSGIFETKFQVDKVNFHMFDVGGQRDERRKWIQCFNDVTAIIFVVDSSDYNRLQEALNDFKSIWNNRWLRTISVILFLNKQDLLAEKVLAGKSKIEDYFPEFARYTTPEDATPEPGEDPRVTRAKYFIRDEFLRISTASGDGRHYCYPHFTCAVDTENARRIFNDCRDIIQRMHLRQYELL
